Assay results taken from the DeepSol protein solubility set.

experiment: soluble on expression in E. coli; label from the status in PepcDB or PDB records

Sequence | soluble on expression in E. coli
MSLKILFAVSECTPFVKSGGLADVAGALPKALARLGNEVAVMLPKYSQIPEPWKKRMKKQAECTVAVGWRQQYCGIEHMAENDVNYYFIDNEYYFNRDSLYGHYDDGERFAFFSRAVLEAAKVVNVQADIVHTHDWHTAMVNYLLKEEYRKHPFYERMKSVLTIHNLQFQGIFPPDVTHDLLGLEMDHFHYERLECNGFVNFMKAGIIAADHVTTVSPTYRNEIMTPYYGEQLEQVLQYREDDVTGILNGIDDTFYQPKSDPYIEAQYDSGDLACKLENKTKLQQRMGLPEKNDIPLISMVTRLTKQKGLDLVRRIMHELLEEQDIQLVVLGTGEREFEDYFRYAEFAFHEKCRAYIGFDEPLAHQIYAGSDMFLMPSKFEPCGLGQLIALQYGAIPIVRETGGLYDTVRAYQEEEGTGNGFTFSAFNAHDLKFTIERALSFYCQQDVWKSIVKTAMNADYSWGKSAKEYQRIFEQVTRSGRDVLEEGHHHHHH | soluble
MAIQLSKGQRIDLTKTNPGLTKAVIGLGWDTNKYSGGHDFDLDASAFLVDAHDNCVNDLDFVFYNNLEHPSGGVIHTGDNRTGEGDGDDEQIIVDFSKIPAHIEKIGITVTIHDAEARSQNFGQVSNAFVRVVDEETQNELLRFDLGEDFSIETAVVVCELYRHGGEWKFNAIGSGFSGGLAALCRNYGLQVLEHHHHHH | soluble
MSLDTGVTSVMFVERSLNEIRFWSRIMKEHSFFLRLGFRCEDTQLIEEANQFYRLFEHIEQIAHSYTNETDPEQIKRFNAEVQQAATNIWGFKRKILGLILTCKLPGQNNFPLLVDHTSREADYFRKRLIQLNEGKLDALPDAIIKENVFFLRIMADHAKFIGHLLDPSERKLVDTARNFSNDFDELMYQAIDLESMKPQSQTAPLLDQFLDQNRVSVASLRDFKKTARDLIEQCKIKSIIHPLLADHVFREADRFLEIIDMYDVHLTNIQSQPREGHHHHHH | soluble
LNKTVKHMWPFICQFIEKLFRETIEPAVRGANTHLSTFSFTKVDVGQQPLRINGVKVYTENVDKRQIILDLQISFVGNCEIDLEIKRYFCRAGVKSIQIHGTMRVILEPLIGDMPLVGALSIFFLRKPLLEINWTGLTNLLDVPGLNGLSDTIILDIISNYLVLPNRITVPLVSEVQIAQLRFPVPKGVLRIHFIEAQDLQGKDTYLKGLVKGKSDPYGIIRVGNQIFQSRVIKENLSPKWNEVYEALVYEHPGQELEIELFDEDPDKDDFLGSLMIDLIEVEKERLLDEWFTLDEVPKGKLHLRLEWLTLMPNASNLDKVLTDIKADKDQANDGLSSALLILYLDSARNLPSGKKISSNPNPVVQMSVGHKAQESKIRYKTNEPVWEENFTFFIHNPKRQDLEVEVRDEQHQCSLGNLKVPLSQLLTSEDMTVSQRFQLSNSGPNSTIKMKIALRVLHLEKRERPPDHQHSAQVKRPSVSKEGRKTSIKSHMSGSPGPGGSNTAPSTPVIGGSDKPGMEEKAQPPEAGPQGLHDLGRSSSSLLASPGHISVKEPTPSIASDISLPIATQELRQRLRQLENGTTLGQSPLGQIQLTIRHSSQRNKLIVVVHACRNLIAFSEDGSDPYVRMYLLPDKRRSGRRKTHVSKKTLNPVFDQSFDFSVSLPEVQRRTLDVAVKNSGGFLSKDKGLLGKVLVALASEELAKGWTQWYDLTEDGTRPQAMT | soluble
MSLAARLIRSSRSNTFGIITDYVSTTPYSVDIVRGIQDWANANGKTILIANTGGSSEREVEIWKMFQSHRIDGVLYVTMYRRIVDPESGDVSIPTVMINCRPQTRELLPSIEPDDYQGARDLTRYLLERGHRRIGYIRLNPILLGAELRLDAFRRTTSEFGLTENDLSISLGMDGPVGAENNYVFAAATEMLKQDDRPTAIMSGNDEMAIQIYIAAMALGLRIPQDVSIVGFDDFRTVTMALKPELTTAALPYYDLGREGAKWLNDLIAGEKIYPGSRVVSCKLVERSSAAFGEGHHHHHH | soluble
MRLLTWDVKDTLLRLRHPLGEAYATKARAHGLEVEPSALEQGFRQAYRAQSHSFPNYGLSHGLTSRQWWLDVVLQTFHLAGVQDAQAVAPIAEQLYKDFSHPCTWQVLDGAEDTLRECRTRGLRLAVISNFDRRLEGILGGLGLREHFDFVLTSEAAGWPKPDPRIFQEALRLAHMEPVVAAHVGDNYLCDYQGPRAVGMHSFLVVGPQALDPVVRDSVPKEHILPSLAHLLPALDCLEGSAENLYFQSHHHHHHDYKDDDDK | soluble
LKVSEPAPKGFLIIGANDVARQVGLAIAKYDCRVVVTDSNWDYIRQARMTGLEHYYGNPISSHAEDYLNLIGIGHVLALSPDKHFNIMACMQFLSDFGDKRVFCLNDNPTNNVSEKHLVAQEYHGLPFLGGEVSYKKLASLVGQGAEVKHTKLS | not soluble
MSVEKTCRYLSLFLVASLTGCGFHLRGSETSDGAGQVLFLEKAGSTRVGSRLPDAIRLTGAQLTRNMVDAKGVIRILKETDERRTMSLNLGGRGNLFDLYTRVRYEVTTPQGEIIIPPQEVEVKREYFNNQLSPIGQGEEESLLRSEMERELAETLVRRVLIEMSRNPGGKSLEHHHHHH | soluble
MGSDKIHHHHHHMQKTLNTKKANLAMERAGLTQTAVAESLAVSKEAVSQWLSSKSFPRPNKLLQLGKLLGLPFDELVIKEDPFTPKVAFRKKAGTKTKDHHIEKAQEMGRFLRHLVAYLPFDTLEMPPVLKSPSCEYDYLCKVTAKVREDINVGTAECIDFSHLIRRFSELQAVVVPVMWGVKQRHENAVHIHLPDSQSTWVYLNLDTNIHDFKFWMAHELGHCLSPSLEGDNAEDFADAFAATLLYPNELAEKAYTSINAQPSPAAKIAHVVDLADQFTISPYTVLGQANKYALSTGRNEIKLSNSFHGAVTNFNKRYKNLSEALFGDAELDEHGKPSAKEYINKAETAFETPFFELLRKYLKEHDKGPGFVQTVLDMPLLDARSIHTELT | not soluble
MGSDKIHHHHHHMEETFQLLYDTYHQDLYQFLFYMVKDKNQTEDLLQEVYIRVLNSYHTFEGRSSEKTWLLSIARHVAIDWFRKQQTIRQRILGTFDWDTQDVRDQQLLPDELAVQHENVREISCALDQCTIDQRAVIILRFIQGYSIQETAKALRFSESKVKTTQHRGLKVLRKHMELLREELMDDEVRMERRTDKGVVKSTSGS | not soluble
MGSDKIHHHHHHMNAVISILVENTTPSPSLIGEYGFSALVEVDERKILFDTGSSDALFKNAENLGVKLEEVEALVISHGHFDHTSAVIPFLQRFGPKKLYLHPGIFSQRYLQGKKGLGPNIGCPFEPEDLVKNGAEIIFIDSFSEIMPGVFISGEIPRRNSFENTGGNFKVATHHGLLEDRLLDDMALLVDHPEGLIIISGCAHSGMINTIEYIREKTGRSKILAFIGGTHLITASEDRLAQTIAVLKMMDIEKIAVGHCTGFYAAARLLNELGPRVIKADTGMSFSF | not soluble
MKAFDQVNHSLLLHKLHDFGINPLFCNWFHDFLSSRTFSVKVNNHIDPNIHPIPSGVPQGSVSGPFLFLIFINSLLLSLPPTISCSAFADDLKVYSHSPPLIQTTIDLITAWSENNKLPLAHSKTCLLHLGKKNPKTVYKINNLPISPSNVARDLGILTDSKLTFKTHIKKIVFLALLRCKQLLKSFKSLCPEFCCNLFKTYILPLIEYGSAVYSPKPSSSLSTLLEKPLRWYSQKVLQKCNISYSSYNDRLKSLNLHSIRHRRLKSKLILLYKFCCGTSFLPQKETYFKLSTSSRRPMRIICHNPSSNNFFSDTISFWNAITNNCDTFLSPIHFENLVDNSITRL | not soluble
MDNTEDVIKEFMQFKVRMEGSVNGHYFEIEGEGEGKPYEGTQTAKLQVTKGGPLPFAWDILSPQFQYGSKAYVKHPADIPDYMKLSFPEGFTWERSMNFEDGGVVEVQQDSSLQDGTFIYKVKFKGVNFPADGPVMQKKTAGWEPSTEKLYPQDGVLKGEISHALKLKDGGHYTCDFKTVYKAKKPVQLPGNHYVDSKLDITNHNEDYTVVEQYEHAEARHSGSQ | soluble
MGSDKIHHHHHHMSTSAIDPVSFSLYAKDFTRFAQELGASFERYGFAVLSDYDLDQARIDAAVDSAKAFFALPVETKKQYAGVKGGARGYIPFGVETAKGADHYDLKEFWHMGRDLPPGHRFRAHMADNVWPAEIPAFKHDVSWLYNSLDGMGGKVLEAIATYLKLERDFFKPTVQDGNSVLRLLHYPPIPKDATGVRAGAHGDINTITLLLGAEEGGLEVLDRDGQWLPINPPPGCLVINIGDMLERLTNNVLPSTVHRVVNPPPERRGVPRYSTPFFLHFASDYEIKTLQNCVTAENPDRYPESITADEFLQQRLREIKLA | not soluble
MRVKTIMTQNPVTITLPATRNYALELFKKYKVRSFPVVNKEGKLVGIISVKRILVNPDEEQLAMLVKRDVPVVKENDTLKKAAKLMLEYDYRRVVVVDSKGKPVGILTVGDIIRRYFAKSEKYKGVEIEPYYQRYVSIVWEGTPLKAALKALLLSNSMALPVVDSEGNLVGIVDETDLLRDSEIVRIMKSTELAASSEEEWILESHPTLLFEKFELQLPNKPVAEIMTRDVIVATPHMTVHEVALKMAKYSIEQLPVIRGEGDLIGLIRDFDLLKVLVKSKA | soluble
MGKMIPYVIDLDAIFDLSSIEIYRLLTSSLSNVRYYPPKDLLKTVINDFDISKFKPFPDSQYLEELNYRARIYVITNLPKIEAKLLLVRYNLDAFIQDVISPEDINRYFPSKEVLVLISRKTNSPLGSITFITPHIDYAILTSNLGMRTILIRNSISLPRDIRVEIRKSLVELAEITAQHKIDSEAGDSALRCQ | not soluble
MNGNQARNDIDEWLKTAACIKHPAGCVDQDGHSAFSDREGNLFQLAVPDAFSSLHLYGTLLELQPAVDGRVLASALAINAQKNVLRGSVIALNTENQELFVHHTVTLESLDRVALWQTLDNFVALTRELRSALRSQPVPAAKIESTHFNHLRRGF | not soluble
MKRVEDWIKQAERDLEEARYAKSGGYYELACFLSQQCAEKAVKGLLQFQGIEKRGHSISHLLTNPPADILQCATFLDKQYTPSRYPDVYYEGAPYEYYTERDADECINCAIRILNWVKGQIK | soluble
MALSKLNHLYMAVVADHSKRPHHHGQLDGVEAVQLNNPTCGDVISLTVKFDEDKIEDIAFAGNGCTISTASSSMMTDAVIGKSKEEALALADIFSEMVQGQENPAQKELGEAELLAGVAKFPQRIKCSTLAWNALKEAIKRSANAQHLTDQNVKEGKNV | soluble
MSLARLEPWAEKLTSDPATCRHLIEEFGSPVNVLHSGSMPRNINELVDAGIQMGVDTRIFFARKANKGLTFVDAVKDTGHGVDVASERELSQVLNRGVPGERIILSAAIKPDRLLALAIENGVIISVDSRDELDRISALVGDRVARVAPRVAPDPAVLPPTRFGERAADWGNRLTEVIPGVDIVGLHVHLHGYAAKDRALALQECCQLVDSLRECGHSPQFIDLGGGVPMSYIESEEDWIRYQSAKSATSAGYAESFTWKDDPLSNTYPFYQTPVRGNWLKDVLSKGVAQMLIDRGLRLHLEPGRSLLDGCGVTLAEVAFVKTRSDGLPLVGLAMNRTQCRTTSDDFLIDPLHITDGDVGEEIEAYLVGAYCIEDELILRRRIRFPRGVKPGDIIGIPNTAGYFMHILESASHQIPLAKNVVWPEGQLDDIDADEGHHHHHH | soluble
MLLNEIPWTIPLTVRLSNGLTHTFASVYEALDFLENEWPLRKGERYERAVRTCRRALNRMTPAAVAREAFIAACLEAGMPLVMAPPAREPQGDTVKAAHTA | not soluble
